Reference: a protein production outcome set (Wang et al. 2014)

test: label from the status in PepcDB records

Sequence	protein production
MDKLDANVSSEEGFGSVEKVVLLTFLSTVILMAILGNLLVMVAVCWDRQLRKIKTNYFIVSLAFADLLVSVLVMPFGAIELVQDIWIYGEVFCLVRTSLDVLLTTASIFHLCCISLDRYYAICCQPLVYRNKMTPLRIALMLGGCWVIPTFISFLPIMQGWNNIGIIDLIEKRKFNQNSNSTYCVFMVNKPYAITCSVVAFYIPFLLMVLAYYRIYVTAKEHAHQIQMLQRAGASSESRPQSADQHSTHRMRTETKAAKTLCIIMGCFCLCWAPFFVTNIVDPFIDYTVPGQVWTAFLWLGYINSGLNPFLYAFLNKSFRRAFLIILCCDDERYRRPSILGQTVPCSTTTINGSTHVLSGCSPVSSFLLLFCNRPVPV	failed
MDKLNAISIFCKVIETQSFTLAAKQQNISVAMASKLVSQLEEHLKTRLLQRTTRKIMPTEAGMMYYQRCQGILLDLDEADSSITQLTSSLQGNLLISVPRDFGLLFIAPNLPTFMAKHPHLHIEVEFNDKKIDLLSEGYDLALRIGYMEDSSLVSRKIGTTTVHFAASPNYLETNGIPQTPDDLEHHNGLLYKNAMNQVNWVGSRINQTQRFKIQSKVVSNSGFALLNMAKAGLGIANLPKFILGRAFEKGELIEILPEYKQQKLEIHVVYPNRRHLPIKVTGISLNF	failed
MDKMTSSKHYKESMTLLFEGSLRAIPFNIILATLLALDLVYSDVPALIIGAWFFGIVFISLVRSYFCWKIIKRGVEKNRIQATLIEFFLLTFVTGSIWGACYFITLPYVNDLHEFIIILVFGGMCAGAIASLSIYLPAYYAYVFPMLLPVIVYNYALLDVDRTMLATMFLIFIAMLIISAKINHRLLNENFRLFNEKELLINELKVMSITDSLSGLYNRRYFDNIFPQEFNRARRNQYFLSLVSIDIDNFKLINDNLGHPFGDKVLISIADLLKKIFRRSNDILFRLGGDEFAIIIANQPIKETISICETIKNPFKTENLNHTYDSNEQLFMSHVTLSIGIVYIHFESSASIEHAITAADKALYQAKKKGKNQIVVKKLL	failed
MDKNEIGLNAGKVWQLLSNNDKWSYGNLKKKSGLKDKDLGAALGWLAREDKIEFEQEEEELYVYLCVNVYIGLEHHHHHH	failed
MDKPILKDSMKLFEALGTIKSRSMFGGFGLFADETMFALVVNNQLHIRADQQTSSDFETQGLKPYVYKKRGFPVVTKYYAISSELWESSDRLIEVAKKSLENAKLEKEQQASTKPNRLKDLPNLRLATERMLKKAGIDSVAQLEEEGALSAYKAIRDTHSTTVSLELLWALEGAINGTHWSVVPQSRREELMNGLS	not failed
MDKRIDLTEGKITSNLIKLSIPIMATSFIQMAYNMADMIWVGRIGSNAVAAVGTAGFFPWLGMAFVMISKVGAEIKVAQSLGRNDIDSTKDYIKSAFQINIILAIIYSIILLLFNSQLIGFFDLGDAEVIKMAKTYLIAVALGMIFNFLNPVFTAVFTGSGDSRIPFIANTIGLIFNIVFDPILIFGIGIFPEMGVLGAALATVLAQVIVTVTFLYIMIKSKAEYLKINILSGIKINCMKTLFHIGLPAALQSGLFTVFSMFIGKIVAVFGPVPIAVQKVGSQVEAIAWMTAGGISTALSTFVGQNYGAGKLKRIVKGFNITMIISLIVGVFASLVLIFFGEEIFRIFIPEAQAIEQGTVYLKILGYCQILVCVEITTTGAFNGLGRTYIPSIISILLTGARIPMAYIMCKPEFLGLEGIWWAISITGALKGVVVYAIYRYLYKKNKLFKVYKDENGEECISI	failed
MDKRLQQDRIVDKMERFLSTANEEEKDVLSSIVDGLLAKQERRYATYLASLTQIESQEREDGRFEVRLPIGPLVNNPLNMVHGGITATLLDTAMGQMVNRQLPDGQSAVTSELNIHYVKPGMGTYLRAVASIVHQGKQRIVVEGKVYTDQGETVAMGTGSFFVLRSRGLEHHHHHH	not failed
MDKTDSIDIDKQVNTDELFGHPKGLYICFATELWERFSFYGMKYLLLLYLTKYHLFSDGEGLEVLGSYAGLVYTLPVIGGMLADRYLGMKKSVIFGGILLCLGHLLMAVEGHQAVQYAAGTILTSDLTLNNGAVLSAGTLLTETIKIQDLAALNVFYFALSLIVVGVGFLKPNISTIVGQLYSKDDPRRDSGFTIFYMGINLGSFAATIICVYLGETYGWRYGFGAAGIGMLFGLVTFTKGLKYLRGLAEPPDVAVLSEKVWGLISREYLIYLTAILSLSVFWLVIQHEPVVFAAQQVLLVVSGVGLIGYAALKGSREEFQQMLVLMVLIGSTIVFWALFEQAAGSMTLFADRVVERNIAGIEITAGQFGALNAGFIIMLALPFAALWVWLEKFRLNPNIPIKFALGIIQAGLGFGVLVFGAQFPDEAGKISLWWLVLAYLIHTTGELCLSPVGLSAVTKLAIHRVVGLSMGVWFLATALSETLAMRLGKLAAIDTQGGELNSVSDNLIIYTQLFEFLMWIGIGTGVVVLLISPLLKRGMHGVR	failed
MDKTIYEQMLLKNYKGAEGAEEAWDARANHFYKSQQRGRSELVEKVTAILQERGLLAGADLLDIGGGSGRYAVPFAAHAEHVTITDISANMLELARRNAQEAGVTNLTYAKLEWTGADLAAWQWRKRFDLVFASMCPAIRSPEGLYKMLEAAKGFCLINQYIEATDSLSAYLTQVLDPPRSYEPYNDRDMVQAVFNLLWLEGYEPEICYLRQREVTSFTVEGAVEQYGGRYHQAAQLKRMDLAELISRHAGQVTFSVDSKATLAMILWKV	failed
MDKVFGRTQGLKKSELKRISNLYRRRLPKDRVLTPELAHTLAALSAEVGRPLSLVLDREGRVVRVAVGDAKDVPFPEEGWSERRLSGYRLLHTHLGPGGLSRPDLSVLFLRRLDNLAALEVEADGRPGLLHLAFLSPPRALEEDWRVLPPKPFHQYLDLDLWGEVMALEEELSRQARVLEVRDGSGERALLVGVDTGEGPEAEAVLRELAELTRTAGGVPVKQILVFRKSLDPRYLVGLGKLEELKSLAYHENASTLIFGVDLTPAQAREIERVTGLKVLDRTQLILDIFALHAKTPEAQAQVELAQLRYLLPRLVGKGKEMSRLGGGIGTRGPGETKLEVDRRRLQDRIAHLSRKLQDYALRRQEARQKRKRRGVPLVAVVGYTNAGKTTLLRALTRAGEEGEDKLFATLRPLTRRGFLPGVGEVLFTDTVGFIRHMPEELLTAFRATLEEVREADVLVHVLDASEEGALERHRVVRDLLLDLGVEAPVVLALNKADRAAPYDLYFLGERLGGVPVSALKGTGLKELKEALARALLDLGVRPQAWAQYT	failed
MDKYLSANSLEGVIDNEFSMPAPRWLNTYPAGPYRFINREFFIIAYETDPDLLQAILPPDMELLEPVVKFEFIRMPDSTGFGDYTESGQVVPVRYKGEEGGFTISMFLDCHAPIAGGREIWGFPKKLAKPKLFVEEDTLIGILKYGSIDIAIATMGYKHRPLDAEKVLESVKKPVFLLKNIPNVDGTPLVNQLTKTYLTDITVKGAWTGPGSLELHPHALAPISNLYIKKIVSVSHFITDLTLPYGKVVADYLA	not failed
MDLDNLFKTTSSSKDKKNNTIDLVVSDDMAFLQAIDELYAIEGFASPLKVDDIDDESWHKTSAEIKHVVLDLRDCGELVSEVAEISSRLDVSISLIVLSNTDSILMRDKVLSLGANYILWDPELDGLLGALKESGKDTFSPTVKKKSRIAKRVLMLGSKGGVGVSTISAFLSHSLSQQASLKTLLVEHDTLALNSDIFLGLKGLKAQQNSIDLNQSELDAAIAGSYVHPIKDKLDFLALEKNIACISDHADSLFRISNELVDQYNFIIDSLPLNAINELTSEDINERYNRIFVVCEPSVASLRAYHSIKKKLGKAEHRIIFSMTRSQKDYMMPLQGAKEKIKAKDTIDFVYEANLEKLIIQQGIHNTAKIKFTPAIANMVNSLTGKKVKVQKKFAWFKK	failed
MDLFLAMRVYVKVVETGSLTAAAQACSISTTMVGNHLRALEQRLGVSLLQRTTRRQRLTEFGTAYYQRCLEVLGLVAQSEQLAEQAQGEPTGTLRITAPLTFGSELLAPALVGFSQRFPDVKLDLVLTNQRLDMIDNGFDVAIRLGNLAQSSPLIARPLQDYTLTICAAPDYLARHSAPTRPEDLRAHNCLAFAYPAGDEWRTAGTQWRMTGPEGEVLVDVDGSMVANTSAGLYQAARAGMGVVMLPDALVQRDLQEGRLVALLPDYHLPRRPMNLLYVQDRYRLPKLRSFVEFATALWGR	failed
MDLFNAPIAPLQVLHDQQGGVRYWPHLLPPALAQEAFDALRDDADWRSQRREMYDRVVDVPRLLASYRLDDALPAGLPLQRLLDAVQAVLPAPYNAVGLNLYRDGRDSVAMHHDALHTLVAPHPIALLSLGTPRRMQLRAKDGSTRAVALELAPGSLLAMSHASQHTHVHGIAKSTRAVGERISVVFRVRPAQRMAAGQHGPHWEPVQS	failed
MDLGYLKSKESGFIAGMILCTAFMGSSFPSGKYLISEEAMPAFYAGGWRFLLAGGLILAFCAAKDGLGAILPASGGSVIKGALFVLVVGCLQTAGTMGFLNLALTTLSASMASLLLFTNPLWVAILAHFALGETLSWHKVVALVCGILGVSLCLGGGADHGLGGIVIALAGSLCWALCTLISKKHKFDKSVFVFTGWQLTLGALVMLAISKLSGEAYDIDRITGWGIACFIWLVGPASIGSFGLWFTALSRRGATVTSSYLFLVPLFSAVFSMMVLGEAVSPHSLIGGAIIIVALWLINLPQTVSAVWRERLGL	failed
MDLIGLRIRNIRKIKQLTLKEAAKGIISVPYLANIENGVKVASFETLMHIAKRLEIPEEALLIGNEDLNKELLQELKQIFDLLVFSNTKEAGDRLDQIAANVDLLCESPVIELSFYWLQAGFYYKTWEFSKAREIERKYLNSNEKRVVESFPPDLLSYYYYGQAVKHSHATCDYQLAVEYWEKSIDLTDKAAFQVVFQVGLCINYICLNNYEPALKHIECAWNLIKRFPSKDQERITAILYLYGYINFQIGFMTEAKRKFEEVLVFFNMYPEAKTMYSFLVRFKLAEIERVEGNHELFDEKIVCLYEELMAHEASEIGFNNNDYLVITELMVIFAEQGSVLEASNLLAIINKVTEQVMEINFFVTYTETLLLYHQNKQSSYEKKMLDLLKKIDESNDPALIERVKKHASKHFADSTKYKMAYNILA	failed
MDLPVDEWKSYLLQKWASLPTSVQVTISTAETLRDIFLHSSSLLQPEDELFLKRLSKGYLVGKDSDAPLFYREEGNKKFQEKDYTGAAVLYSKGVSHSRPNTEDMSLCHANRSAALFHLGQYETCLKDINIAQTHGYPERLQPKIMLRKAECLVALGRLQEASQTISDLERNFTATPALADVLPQTLQRNLHRLKMKMQEKDSLTESFPAALAKTLEDAALREENEQLSNASSSIGLCVDPLKGRCLVATKDILPGELLVQEDAFVSVLNPGELPPPHHGLDSKWDTRVTNGDLYCHRCLKHTLATVPCDGCSYAKYCSQECLQQAWELYHRTECPLGGLLLTLGVFCHIALRLTLLVGFEDVRKIITKLCDKISNKDICLPESNNQVKTLNYGLGESEKNGNIVETPIPGCDINGKYENNYNAVFNLLPHTENHSPEHKFLCALCVSALCRQLEAASLQAIPTERIVNSSQLKAAVTPELCPDVTIWGVAMLRHMLQLQCNAQAMTTIQHTGPKGSIVTDSRQVRLATGIFPVISLLNHSCSPNTSVSFISTVATIRASQRIRKGQEILHCYGPHKSRMGVAERQQKLRSQYFFDCACPACQTEAHRMAAGPRWEAFCCNSCGAPMQGDDVLRCGSRSCAESAVSRDHLVSRLQDLQQQVRVAQKLLRDGELERAVQRLSGCQRDAESFLWAEHAVVGEIADGLARACAALGDWQKSATHLQRSLCVVEVRHGPSSVEMGHELFKLAQIFFNGFAVPEALSTIQKAEEVLSLHCGPWDDEIQELQKMKSCLLDLPPTPVGPAL	failed
